For assay [1], the target named is SARS-CoV-2 Spike on CEM.NKr-Spike cells (SARS-CoV-2, Wuhan-Hu-1 (assumed for the …, UniProt P0DTC2)). In words: flow cytometry on cells. A general note: In flow cytometry, cells or beads pass a laser one at a time.
The target in assay [2] is SARS-CoV-2 Spike WT (Wuhan-Hu-1 reference strain) (SARS-CoV-2, Wuhan-Hu-1, UniProt P0DTC2). In words: flow cytometry on cells.
The target in assay [3] is SARS-CoV-2 S1 domain C-His tag protein, from HEK293 cells (SARS-CoV-2, Wuhan-Hu-1 (strain not …, UniProt P0DTC2)). In words: SPR.

B1: CV3-13 (hIgG1) (antibody, V domains shown)
VH: QVQLQQSGPGLVKPSQTLSLTCTVAGGSISSGTYYWSWIRQPAGKGLEWIGRIYTSGSANYNPSLKSRVTISVDTSKNQFSLRLSSVTAEDTAVYYCAREYSSSYYYFYYMDVWGKGTTVTVSS
VL: AIRMTQSPSSLSASVGDRVTITCQASQDISNYLNWYQQKPGKAPKLLIYVASNLETGVPSRFSGSGFGTDFTFTISSLQPEDIATYYCQQFDNLPYTFGQGTKLEIK
In the case of B1, the binding result in assay [1], in assay [2] and in assay [3] was “binds” in each case.

B2: CV3-13 […] (hIgG1) (antibody, V domains shown)
VH: B1 VH
VL: B1 VL
Take B2: the binding result in assay [1] and in assay [2] was “binds” each time.

B3: CV3-13 LALA (hIgG1) (antibody, V domains shown)
VH: B1 VH
VL: B1 VL
As for B3, the binding result in assay [1] and in assay [2] was “binds” each time.
